From patent publication US20230416410A1 (ZOETIS SERVICES, published 2023)

Key:
CTLA4bG2a = target: T1, CTLA4bG2a (canine; bovine, UniProt Q9XSI1 36-161, limits assumed); assay: SPR Biacore, bFcg2R amine-coupled on CM5, pH 7.4, 15 C
T1 construct: No linker; also called bIgG2a wildtype (CTLA4 fusion); CTLA4 Fc bIgG2a wildtype

CTLA4bG2b = target: T2, CTLA4bG2b (canine; bovine, UniProt Q9XSI1 36-161, limits assumed); assay: as above
T2 construct: No linker; also called bIgG2b wildtype (CTLA4 fusion); CTLA4 Fc bIgG2b wildtype
T2 sequence: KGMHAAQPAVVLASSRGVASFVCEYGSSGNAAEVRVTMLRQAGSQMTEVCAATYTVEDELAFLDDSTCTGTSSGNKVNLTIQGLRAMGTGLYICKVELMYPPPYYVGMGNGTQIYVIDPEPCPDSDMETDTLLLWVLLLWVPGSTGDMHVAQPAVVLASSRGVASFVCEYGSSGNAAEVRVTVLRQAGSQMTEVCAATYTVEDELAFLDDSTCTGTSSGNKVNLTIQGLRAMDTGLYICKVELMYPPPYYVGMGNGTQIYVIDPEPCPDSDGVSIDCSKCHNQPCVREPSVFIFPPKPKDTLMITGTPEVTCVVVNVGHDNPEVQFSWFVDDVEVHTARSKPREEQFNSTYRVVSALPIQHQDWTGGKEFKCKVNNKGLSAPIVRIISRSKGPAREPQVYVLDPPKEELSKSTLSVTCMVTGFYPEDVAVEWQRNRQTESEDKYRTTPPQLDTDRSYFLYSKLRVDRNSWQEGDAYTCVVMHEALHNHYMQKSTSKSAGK

[1] = target: complement component C1q (in bovine complement preserved serum) (bovine, UniProt Q5E9E3 23-244; Q2KIV9 23-247); assay: cell-based or functional assay
recombinant bovine FcgR1 = target: T3, recombinant bovine FcgR1 (bovine, biotin on the BAP tag (BirA)); assay: SPR Biacore, biotinylated receptor on SA sensor, pH 7.4, 15 C
T3 construct: also called bFcgR1; bFcgRI
Protocol: (§1) A Biacore SPR binding assay was designed to test the affinity of bovine IgG subclasses to bFcgR1, bFcgR2 and bFcgR3. All reported KD's were measured by Biacore (Cytiva, Marlborough, MA, USA) using series S SA sensor. Biotinylated-bovine FcgR1, R2 and R3 were captured on the sensor surface using a modified SA capture method to reach the desired surface density. 10 mM HEPES, 150 mM NaCl, 3 mM EDTA, 0.05% v/v surfactant P20, pH7.4 buffer was used as the running and titration buffer. Various concentrations of bovine CTLA4-Fc fusions or mAbs were titrated and flowed over the receptor surface and affinities were determined using Biacore T200 Evaluation software (Cytiva, Marlborough, MA, USA) with 1:1 binding model. The method of double referencing has been applied where the reference flow cell was subtracted from the flow cell containing immobilized receptors and blank runs containing buffer only were subtracted out from all runs. Flow cells were regenerated using 10 mM Glycine pH1.5. Runs were performed at 15° C.
(§2) Biacore methods for bFcgR1, R2, and R3 were performed as described in Examples above. […] Although the two allotypes have different KDs for bFcgR2 and bFcgR3, both wildtype allotypes do bind. All of the mutations, bIgG3Win, bIgG3WinSAS, bIgG3SAS and bIgG3SAP for both the a and b allotypes knocked down binding to bFcgR1, bFcgR2 and bFcgR3 to negligible affinities. Thus, for knocking out receptor binding, the two allotypes compare similarly.

recombinant bovine FcgR2 = target: T4, recombinant bovine FcgR2 (bovine, UniProt Q28110 43-225, limits assumed, biotin on the BAP tag (BirA)); assay: as above
T4 construct: also called bFcgR2; bFcgRII
T4 sequence: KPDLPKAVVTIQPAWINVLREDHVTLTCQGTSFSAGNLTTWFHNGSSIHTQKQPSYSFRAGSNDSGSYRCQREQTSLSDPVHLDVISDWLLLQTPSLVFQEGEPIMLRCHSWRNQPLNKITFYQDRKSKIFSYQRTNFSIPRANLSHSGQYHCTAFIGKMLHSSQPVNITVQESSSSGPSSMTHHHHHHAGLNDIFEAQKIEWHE
Protocol: as §1, §2

recombinant bovine FcgR3 = target: T5, recombinant bovine FcgR3 (bovine, UniProt P79107 17-208, limits assumed, biotin on the BAP tag (BirA)); assay: as above
T5 construct: also called bFcgR3; bFcgRIII
T5 sequence: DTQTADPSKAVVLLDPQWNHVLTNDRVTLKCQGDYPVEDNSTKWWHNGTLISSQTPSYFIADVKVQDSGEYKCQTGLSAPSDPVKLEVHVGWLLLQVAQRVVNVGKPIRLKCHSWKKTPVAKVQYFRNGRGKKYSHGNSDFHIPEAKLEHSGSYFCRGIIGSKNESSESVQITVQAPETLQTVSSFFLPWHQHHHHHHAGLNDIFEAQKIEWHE
Protocol: as §1, §2

Chain of complement component C1q (in bovine complement preserved serum) (Q5E9E3 23-244, chain 1 of 2): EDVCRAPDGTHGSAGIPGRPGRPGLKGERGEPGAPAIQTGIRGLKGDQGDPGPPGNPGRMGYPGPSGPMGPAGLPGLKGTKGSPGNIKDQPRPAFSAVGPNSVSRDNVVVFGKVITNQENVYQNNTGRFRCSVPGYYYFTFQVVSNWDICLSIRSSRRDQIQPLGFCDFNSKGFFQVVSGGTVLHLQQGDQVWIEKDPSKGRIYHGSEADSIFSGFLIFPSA
Chain of complement component C1q (in bovine complement preserved serum) (Q2KIV9 23-247, chain 2 of 2): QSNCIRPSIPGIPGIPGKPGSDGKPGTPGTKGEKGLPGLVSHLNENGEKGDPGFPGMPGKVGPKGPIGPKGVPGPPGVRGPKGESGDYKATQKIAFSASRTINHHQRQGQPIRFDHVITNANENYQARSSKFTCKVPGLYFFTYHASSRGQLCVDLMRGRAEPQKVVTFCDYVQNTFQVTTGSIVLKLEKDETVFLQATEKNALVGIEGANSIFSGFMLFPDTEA

B1: recombinant bovine Fcg2R (receptor)
chain: GTFPKPIIWAEPSSVVPLGSSVTILCQGPPNTKSFSLNKEGDSTPWNIHPSLEPWDKANFFISNVREQQAGRYHCSHFIGVNWSEPSEPLDLLVAGEEPAGRLRDRPSLSVRPSPSVAPGENVTLLCQSGNRTDTFLLSKEGAAHRPLRLRSQDQDGWYQAEFSLSPVTSAHGGTYRCYRSLSTNPYLLSQPSEPLALLVADYTMQNLIRMGLAASVLLLLGILLCQARHDHGGAREAARS
modifications: biotin on the BAP tag (BirA)
Kd (CTLA4bG2a): 41.7 nM
Kd (CTLA4bG2b): 31.4 nM

B2: CTLA4 Fc bIgG3b (Fc fusion)
chain: DMHVAQPAVVLASSRGVASFVCEYGSSGNAAEVRVTVLRQAGSQMTEVCAATYTVEDELAFLDDSTCTGTSSGNKVNLTIQGLRAMDTGLYICKVELMYPPPYYVGMGNGTQIYVIDPEPCPDSDTARRPVPTTPKTTIPPGKPTTQESEVEKTPCQCSKCPEPLGGLSVFIFPPKPKDTLTISGTPEVTCVVVDVGQDDPEVQFSWFVDDVEVHTARTKPREEQFNSTYRVVSALRIQHQDWLQGKEFKCKVNNKGLPAPIVRTISRTKGQAREPQVYVLAPPREELSKSTLSLTCLITGFYPEEIDVEWQRNGQPESEDKYHTTAPQLDADGSYFLYSRLRVNKSSWQEGDHYTCAVMHEALRNHYKEKSISRSPGK
notes: No linker; also called bIgG3b wildtype; CTLA4 Fc bIgG3b wildtype
CDC EC50 Value [1]: 0.028 µg/mL
Kd (recombinant bovine FcgR1): 12.5 nM
Kd (recombinant bovine FcgR2): 706 nM
Kd (recombinant bovine FcgR3): 49.6 nM
